We go through two molecules from article PMC4383033, “Architecture of the ring formed by the tubulin homologue FtsZ in bacterial cell division” (eLife, 2014).

The labels stand for the following.
B1: Thermotoga maritima FtsZ (natural protein, UniProt O08398 1-351, looked up)
chain: MGFDLDVEKKKENRNIPQANNLKIKVIGVGGAGNNAINRMIEIGIHGVEFVAVNTDLQVLEASNADVKIQIGENITRGLGAGGRPEIGEQAALESEEKIREVLQDTHMVFITAGFGGGTGTGASPVIAKIAKEMGILTVAIVTTPFYFEGPERLKKAIEGLKKLRKHVDTLIKISNNKLMEELPRDVKIKDAFLKADETLHQGVKGISELITKRGYINLDFADIESVMKDAGAAILGIGVGKGEHRAREAAKKAMESKLIEHPVENASSIVFNITAPSNIRMEEVHEAAMIIRQNSSEDADVKFGLIFDDEVPDDEIRVIFIATRFPDEDKILFPEGDIPAIYRYGLEGLL
notes: FtsZ of Thermotoga maritima; 'completely unmodified'; the C-terminal tail was verified by ESMS to be intact after purification; It says 'completely unmodified' with intact C-terminal tails; also called TmFtsZ; source: purified as described previously (Szwedziak et al., 2012)
B2: Thermotoga maritima FtsA (natural protein, UniProt Q9WZU0 1-419, looked up)
chain: MIDLSKTVFYTSIDIGSRYIKGLVLGKRDQEWEALAFSSVKSRGLDEGEIKDAIAFKESVNTLLKELEEQLQKSLRSDFVISFSSVSFEREDTVIERDFGEEKRSITLDILSEMQSEALEKLKENGKTPLHIFSKRYLLDDERIVFNPLDMKASKIAIEYTSIVVPLKVYEMFYNFLQDTVKSPFQLKSSLVSTAEGVLTTPEKDRGVVVVNLGYNFTGLIAYKNGVPIKISYVPVGMKHVIKDVSAVLDTSFEESERLIITHGNAVYNDLKEEEIQYRGLDGNTIKTTTAKKLSVIIHARLREIMSKSKKFFREVEAKIVEEGEIGIPGGVVLTGGGAKIPRINELATEVFKSPVRTGCYANSDRPSIINADEVANDPSFAAAFGNVFAVSENPYEETPVKSENPLKKIFRLFKELME
notes: FtsA of Thermotoga maritima; 'completely unmodified'; the C-terminal tail (amphipathic helix) was verified by ESMS to be intact after purification; It says 'completely unmodified' with intact C-terminal tails; also called TmFtsA; source: purified as described previously (Szwedziak et al., 2012)

Data set [1] deals with the molecule itself. As to the kind of experiment: electron cryomicroscopy and cryotomography of liposomes; TmFtsZ (30 uM) and TmFtsA (10 uM) encapsulated in liposomes of E. coli total lipid extract by dilution of CHAPS; 0.5 mM MgGTP, MgGMPCPP or no nucleotide; TEN100 7.5 buffer; room temperature.
The target of data set [2] is B2. The experiment in a line: transmission electron cryomicroscopy of liposomes; proteins on the outside of liposomes of E. coli total lipid extract; TmFtsA 20 uM, TmFtsZ 60 uM or both; 50 mM Tris/HCl, 100 mM NaCl, 1 mM EDTA, 1 mM NaN3, pH 7.5; room temperature. The following applies: both partners purified.

For the molecule B1, the binding result in data set [1] and in data set [2] was “binds” each time.
Consider B2, for which the binding result in data set [1] is “binds”.
